How the values were obtained:
[1] = molecular target: T1, human CypA (1–165) (human, UniProt P62937 1-165); assay: NMR titration
[2] = molecular target: T1, human CypA (1–165)

| Binder | binding result [1] | fold higher affinity than wild-type CrkII [2] [fold] |
| --- | --- | --- |
| PEPGPYAQPS [CrkII peptide (Pro216-Ser225)] | binds | – |
| CrkII^P218F (natural protein) MAGNFDSEERSSWYWGRLSRQEAVALLQGQRHGVFLVRDSSTSPGDYVLSVSENSRVSHYIINSSGPRPPVPPSPAQPPPGVSPSRLRIGDQEFDSLPALLEFYKIHYLDTTTLIEPVSRSRQGSGVILRQEEAEYVRALFDFNGNDEEDLPFKKGDILRIRDKPEEQWWNAEDSEGKRGMIPVPYVEKYRPASASVSALIGGNQEGSHPQPLGGPEFGPYAQPSVNTPLPNLQNGPIYARVIQKRVPNAYDKTALALEVGELVKVTKINVSGQWEGECNGKRGHFPFTHVRLLDQQNP | – | ~20 |
